This is an account of results in article PMC8366792.

For assay [1], the target named is CH848 10.17DT DS SOSIP trimer (HIV-1 (CH848 10.17) | HIV-1 (BG505)) (UniProt Q2N0S6). The experiment in a line: SEC.
Assay [2] deals with CH848 10.17DT SOSIPv4.1 trimer (HIV-1 (CH848 10.17) | HIV-1 (BG505)) (UniProt Q2N0S6). The experiment in a line: SEC. In general terms: In gel filtration, larger molecules generally elute earlier.

With “CH848 10.17DT DS SOSIP trimer (from UniProt Q2N0S6 509-661) (domain or fragment)”, in assay [1], the percent of the total peak that is trimer is 65% and the stoichiometry N (usually a count of units in the complex or per binding partner) came to 3.

Take “CH848 10.17DT SOSIPv4.1 trimer (from UniProt Q2N0S6 509-661) (domain or fragment)”: the percent of the total peak that is trimer in assay [2] was found to be 62%.
